Molecular target: dual chain avidin dcAvd(I117C5→4S16C,V115H6→5)
Experiment: non-reducing SDS-PAGE; denatured in SDS-PAGE sample buffer without β-mercaptoethanol at 95°C for ten minutes, 15% gel, Coomassie staining

stoichiometry N: 2
Substance: dual chain avidin dcAvd(I117C5→4S16C,V115H6→5)
